{
  "source": "paper PMC4742278",
  "about": "“BS69/ZMYND11 C-Terminal Domains Bind and Inhibit EBNA2” (PLoS Pathogens, 2016)",
  "key": {"[1]": {"molecular_target": "BS69 MYND domain (BS69_(MYND), residues 516–562) (mouse)", "experiment": "ITC; peptide (~1 mM) titrated into BS69_(MYND) or BS69_(CC-MYND) (~0.1 mM) at 5°C; 20 mM Tris-HCl pH 7.5, 100 mM NaCl, 2 mM DTT; one-site fitting model"}, "[2]": {"molecular_target": "BS69/ZMYND11 coiled-coil-MYND tandem domains (BS69_(CC-MYND), residues 440–562) (mouse)", "experiment": "ITC; peptide (~1 mM) titrated into BS69_(MYND) or BS69_(CC-MYND) (~0.1 mM) at 5°C; 20 mM Tris-HCl pH 7.5, 100 mM NaCl, 2 mM DTT; one-site fitting model"}},
  "data": [
    {"binder": "H-EAPILFPDDWY-NH2", "note": "[EBNA2_(435–445) peptide (NH2-…-CONH2)]", "values": [
      {"measurement": "Kd", "setting": "[1]", "value": 93.4, "unit": "µM"},
      {"measurement": "Kd", "setting": "[2]", "value": 34.9, "unit": "µM"}
    ]}
  ]
}
